The experiment has as its target variant 92787 (77405 N-terminally fused to wild-type ubiquitin carrying an S57C substitution) (human) (UniProt P0CG48). The experiment in a line: affinity chromatography; 92787 coupled to SulfoLink resin (1 ml columns); 200 μg of 67B89 spiked into 2 ml of PBS, NHDF cell lysate or serum, washed with PBS pH 7.4, eluted with PBS pH 2.2; fractions on SDS-PAGE.

Chain of 67B89 (ED-B domain of fibronectin flanked by its N-terminal domains 6 and 7 and C-terminal domains 8 and 9) (P02751 1080-1541): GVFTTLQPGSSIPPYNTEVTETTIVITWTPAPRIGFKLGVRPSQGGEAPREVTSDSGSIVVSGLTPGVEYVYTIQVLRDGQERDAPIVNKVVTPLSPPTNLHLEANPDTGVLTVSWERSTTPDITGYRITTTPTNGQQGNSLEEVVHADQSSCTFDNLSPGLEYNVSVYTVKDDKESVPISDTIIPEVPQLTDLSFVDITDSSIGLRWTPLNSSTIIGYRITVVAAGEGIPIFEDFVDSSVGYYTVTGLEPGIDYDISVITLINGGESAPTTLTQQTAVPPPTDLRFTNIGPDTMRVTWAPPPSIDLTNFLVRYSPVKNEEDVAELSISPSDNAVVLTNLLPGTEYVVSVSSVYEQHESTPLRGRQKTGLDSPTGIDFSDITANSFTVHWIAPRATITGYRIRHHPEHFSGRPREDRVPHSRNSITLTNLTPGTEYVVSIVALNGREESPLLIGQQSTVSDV

The substance “67B89 (ED-B domain of fibronectin flanked by its N-terminal domains 6 and 7 and C-terminal domains 8 and 9) (from UniProt P02751-7 1080-1541) (domain or fragment)” displayed a percent of applied 67B89 recovered from the 92787 resin greater than 85%.

(Values after article PMC3961674.)
